Blank lines part the entries; values can stand above or below the binder they belong to.
Experiments:
[1] = target: BIR1-CFP (Arabidopsis); experiment: cross number and brightness (Cross N&B) fluorescence fluctuation analysis; leaf disks of N. benthamiana transiently expressing AtRGS1-YFP with BIR1-CFP or BAK1-CFP; time series of 100 confocal images; SimFCS analysis
[2] = target: T1, BAK1-CFP (Arabidopsis), Q94F62; experiment: as above; details: remark: other sources report otherwise
T1 chain: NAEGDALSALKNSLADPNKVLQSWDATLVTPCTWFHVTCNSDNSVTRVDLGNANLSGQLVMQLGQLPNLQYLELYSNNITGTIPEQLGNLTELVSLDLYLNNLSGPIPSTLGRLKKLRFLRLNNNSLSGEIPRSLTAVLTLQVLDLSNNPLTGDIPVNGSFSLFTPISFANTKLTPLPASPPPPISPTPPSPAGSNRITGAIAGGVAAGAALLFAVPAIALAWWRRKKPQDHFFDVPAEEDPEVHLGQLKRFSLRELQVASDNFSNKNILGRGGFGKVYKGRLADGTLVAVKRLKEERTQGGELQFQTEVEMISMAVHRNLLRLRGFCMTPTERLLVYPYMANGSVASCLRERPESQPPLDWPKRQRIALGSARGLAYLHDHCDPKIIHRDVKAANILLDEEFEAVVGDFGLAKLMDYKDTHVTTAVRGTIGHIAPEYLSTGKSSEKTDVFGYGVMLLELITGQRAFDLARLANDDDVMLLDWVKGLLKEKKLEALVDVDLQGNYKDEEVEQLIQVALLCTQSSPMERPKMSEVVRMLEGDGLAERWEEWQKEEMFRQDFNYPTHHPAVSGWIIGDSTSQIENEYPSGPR

stoichiometry N [1]: 1
B1: AtRGS1-YFP (natural protein)
chain: MASGCALHGGCPSDYVAVAISVICFFVLLSRSVLPCLIHKAPRTNSSSFWIPVIQVISSFNLLFSIMMSVNLLRFRTKHWWRYCYLWAVWIEGPLGFGLLMSCRITQAFQLYFIFVKKRLPPVKSYIFLPLVLLPWIFGAAIIHATKPLNDKCHMGLQWTFPVAGLHALYVLALIAFTRAVRHVEFRFDELRDLWKGILVSATSIVIWVTAFVLNEIHEEISWLQVASRFVLLVTGGILVVVFFSISSNQPLLSQISLKKRQNFEFQRMGQALGIPDSGLLFRKEEFRPVDPNEPLDKLLLNKRFRHSFMEFADSCYAGETLHFFEEVYEHGKIPEDDSIRRIYMARHIMEKFIVAGAEMELNLSHKTRQEILTTQDLTHTDLFKNALNEVMQLIKMNLVRDYWSSIYFIKFKEEESCHEAMHKEGYSFSSPRLSSVQGSDDPFYQEHMSKSSRCSSPG

stoichiometry N [2]: 1
B2: AtRGS1-YFP, Q8H1F2 1-459 (natural protein)
chain: B1 chain

Source: PMC5302818
